B1: P17 WT Fab (Fab, V domains shown)
VH: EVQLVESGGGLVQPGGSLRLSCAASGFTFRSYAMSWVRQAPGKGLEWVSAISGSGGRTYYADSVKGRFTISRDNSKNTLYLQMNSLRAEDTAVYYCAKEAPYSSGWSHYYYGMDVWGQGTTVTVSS
VL: QSVLTQPPSVSGAPGQRVTISCTGSSSGYDVHWYQQLPGRAPKLLIYGSNNRPSGVPDRFSGSNSGTSASLAITGLQAEDEADYYCQSYDSSLNAIFGGGTKLTVL
notes: Fab format, lambda light chain (detected with an anti-Lambda antibody)
B2: P17-15D5 Fab (Fab, V domains shown)
VH: EVQLVESGGGLVQPGGSLRLSCAASGFTFANYAMSWVRQAPGKGLEWVSDVSASGVGTYYADSVKGRFTISRDNSKNTLYLQMNSLRAEDTAVYYCAKEVDFKLGWMHYYYGMDVWGQGTTVTVSS
VL: B1 VL
notes: Fab format
B3: P17-13G2 Fab (Fab, V domains shown)
VH: B2 VH with A30G, N31E, D50G, V51M, A53G, V56D, V100M, F102Y, K103Q
VL: B1 VL
notes: Fab format
B4: P17-16E6 Fab (Fab, V domains shown)
VH: B2 VH with A30R, N31K, D50S, V51L, V56S, G57A, V100A, F102Y, K103S, L104M
VL: B1 VL
notes: Fab format
B5: P17-16A1 Fab (Fab, V domains shown)
VH: B2 VH with A30K, N31R, D50S, A53S, V56T, V100Y, F102Y, K103G
VL: B1 VL
notes: Fab format
B6: P17-15F8 Fab (Fab, V domains shown)
VH: B2 VH with A30G, D50G, A53G, V56D, V100Y, K103G
VL: B1 VL
notes: Fab format
B7: P17-13F3 Fab (Fab, V domains shown)
VH: B2 VH with A30E, N31G, D50N, A53G, V56D, V100Y, F102Y, L104T
VL: B1 VL
notes: Fab format
B8: P17-16A11 Fab (Fab, V domains shown)
VH: B2 VH with A30D, N31R, D50S, V51L, V56S, V100Y, K103S, L104Y
VL: B1 VL
notes: Fab format
B9: P17-8E12 Fab (Fab, V domains shown)
VH: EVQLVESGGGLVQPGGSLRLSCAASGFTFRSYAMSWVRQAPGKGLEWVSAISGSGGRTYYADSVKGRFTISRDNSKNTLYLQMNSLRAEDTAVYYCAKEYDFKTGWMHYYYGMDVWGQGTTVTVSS
VL: B1 VL
notes: Fab format
B10: P17-11F4 Fab (Fab, V domains shown)
VH: B2 VH with A30K, N31D, D50A, V51L, A53G, V56G, G57A, V100M, K103R, L104Y
VL: B1 VL
notes: Fab format
B11: P17-11F4 IgG (antibody, V domains shown)
VH: B2 VH with A30K, N31D, D50A, V51L, A53G, V56G, G57A, V100M, K103R, L104Y
VL: B1 VL
notes: IgG
B12: P17-8E12 IgG (antibody, V domains shown)
VH: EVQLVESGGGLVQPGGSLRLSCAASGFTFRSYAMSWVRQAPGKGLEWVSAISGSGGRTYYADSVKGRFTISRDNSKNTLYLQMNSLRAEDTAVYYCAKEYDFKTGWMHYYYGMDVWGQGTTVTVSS
VL: B1 VL
notes: IgG
B13: P17 WT IgG (antibody, V domains shown)
VH: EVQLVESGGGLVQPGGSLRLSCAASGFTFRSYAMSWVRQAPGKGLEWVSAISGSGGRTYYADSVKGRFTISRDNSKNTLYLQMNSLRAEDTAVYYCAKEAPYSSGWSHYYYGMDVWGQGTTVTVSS
VL: B1 VL
notes: IgG
B14: P17-16A11 IgG (antibody, V domains shown)
VH: B2 VH with A30D, N31R, D50S, V51L, V56S, V100Y, K103S, L104Y
VL: B1 VL
notes: IgG
B15: P17-16A1 IgG (antibody, V domains shown)
VH: B2 VH with A30K, N31R, D50S, A53S, V56T, V100Y, F102Y, K103G
VL: B1 VL
notes: IgG
B16: P17-16E6 IgG (antibody, V domains shown)
VH: B2 VH with A30R, N31K, D50S, V51L, V56S, G57A, V100A, F102Y, K103S, L104M
VL: B1 VL
notes: IgG
B17: 71 anti-GPC3 scFv-Fc (Fc fusion)
VH: QVQLVESGGGVVQPGRSLRLSCAASGFTFSSYAMHWVRQAPGKGLEWVAVISYDGSNKYYADSVKGRFTISRDNSKNTLYLQMNSLRAEDTAVYYCARGGDGYNAAFDIWGQGTMVTVSS
VL: NFMLTQPPSVSESPGKTVTISCTGSSGSIASNYVQWYQQRPGSAPTTVIYEDNQRPSGVPDRFSGSIDSSSNSASLTISGLKTEDEADYYCQSYDSSKHYVFGTGTKVTVL
notes: scFv-Fc, human IgG1 constant regions
B18: P19 anti-GPC3 scFv-Fc (Fc fusion)
VH: EVQLVESGGGLVKPGGSLRLSCAASGFTFSDYYMSWIRQAPGKGLEWVSYISSSGSTIYYADSVKGRFTISRDNAKNSLYLQMNSLRAEDTAVYYCASVYMDVWGKGTTVTVSS
VL: EIVMTQSPGTLSLSPGERATLSCRASQTVSSSSLAWYQQRPGQAPRLLIYETSSRATGIPDRFSGSGSGTDFTLTISRLEPEDFAIYYCQQKGDSGYTFGQGTKVEIK
notes: as for B17
B19: P10 anti-GPC3 scFv-Fc (Fc fusion)
VH: EVQLVQSGAEVKKPGSSVKVSCKASGGTFRSYAISWVRQAPGQGLEWMGGIIPIFGTANYAQKFQGRVTITADELTSTAYMELSSLRSEDTAVYYCASRIGQWPTPFDYWGQGTLVTVSS
VL: QSVLTQPPSVSVAPGKTARITCGGNNIGSKSVHWYQQKPGQAPVLVIYYDSDRPSGIPERFSGSNSGNTATLTISRVEAGDEADYYCQVWDSSSDHPVFGGGTKLTVL
notes: as for B17
B20: P3 anti-GPC3 scFv-Fc (Fc fusion)
VH: QVQLQQSGPGLVKPSQTLSITCAISGDSVSSNSAAWNWIRQSPSRGLEWLGRTYYRSKWYNDYAVSVKSRITINPDTSKNQFSLQLNSVTPEDTAVYYCASSYYNGGYFDYWGQGTLVTVSS
VL: EIVLTQSPATLSVSPGGRATLSCRASQSVTTNLAWYQQKPGQAPRLLIYGASTRVTGVPRRFSGSGSGTDFTLTISSLQSEDSAVYYCQQYSGWGGFGGGTKVDIK
notes: as for B17
B21: P20 anti-GPC3 scFv-Fc (Fc fusion)
VH: B18 VH
VL: B19 VL with Q1S, S2Y, V3E, K16Q, I47V, Y49D, I57V, S92N, P97Q
notes: scFv-Fc, human IgG1 constant regions; The VH as printed is the same as that of P19

Substitutions are numbered along the chain they refer to. Bounds are passed on as bounds.

T2 sequence (P51654 25-559 limits assumed): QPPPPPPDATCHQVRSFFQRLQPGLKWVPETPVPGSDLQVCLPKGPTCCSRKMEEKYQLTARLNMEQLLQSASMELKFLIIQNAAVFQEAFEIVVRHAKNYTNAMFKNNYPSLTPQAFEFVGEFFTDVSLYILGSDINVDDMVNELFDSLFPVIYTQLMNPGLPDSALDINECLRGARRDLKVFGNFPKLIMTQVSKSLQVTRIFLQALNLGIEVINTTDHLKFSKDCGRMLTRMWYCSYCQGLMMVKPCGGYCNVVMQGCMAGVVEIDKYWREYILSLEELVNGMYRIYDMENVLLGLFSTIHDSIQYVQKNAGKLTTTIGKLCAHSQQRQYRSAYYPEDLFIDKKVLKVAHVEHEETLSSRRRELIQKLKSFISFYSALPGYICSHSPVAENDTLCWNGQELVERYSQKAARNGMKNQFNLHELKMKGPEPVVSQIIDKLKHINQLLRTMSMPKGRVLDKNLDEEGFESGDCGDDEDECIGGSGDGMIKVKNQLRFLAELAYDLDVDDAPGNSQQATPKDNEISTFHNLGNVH

The target in one experiment is T1, GPC3 expressed on the cell surface of HepG2, Huh7 and Hep3B cells (human, UniProt P51654 25-554).
T1 construct: Endogenous GPC3 of human liver tumour cell lines; also called Glypican 3 protein on the cell surface; endogenously expressed GPC3
T1 sequence (P51654 25-554 limits assumed): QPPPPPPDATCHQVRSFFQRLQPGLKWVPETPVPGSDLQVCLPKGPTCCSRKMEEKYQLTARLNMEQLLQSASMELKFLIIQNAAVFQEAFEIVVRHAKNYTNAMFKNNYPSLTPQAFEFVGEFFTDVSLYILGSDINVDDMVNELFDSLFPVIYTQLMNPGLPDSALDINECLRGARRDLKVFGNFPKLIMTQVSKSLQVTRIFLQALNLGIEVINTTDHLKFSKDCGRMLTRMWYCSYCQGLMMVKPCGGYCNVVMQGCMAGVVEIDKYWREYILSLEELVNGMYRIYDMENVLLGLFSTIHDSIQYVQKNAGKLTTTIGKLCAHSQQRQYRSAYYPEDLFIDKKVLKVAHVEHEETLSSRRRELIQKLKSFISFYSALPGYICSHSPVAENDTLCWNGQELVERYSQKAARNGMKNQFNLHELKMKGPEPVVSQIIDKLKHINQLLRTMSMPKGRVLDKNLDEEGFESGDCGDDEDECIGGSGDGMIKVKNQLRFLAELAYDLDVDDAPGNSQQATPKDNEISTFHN
Put plainly: flow cytometry, Fab titrated on Hep3B cells. A general note: In flow cytometry, cells or beads pass a laser one at a time.
As a reminder, the EC50 is the concentration at which the effect is half-maximal. Read a low EC50 as higher potency in that assay. As for B1, a half-maximal effect (EC50) was put at 21.3 ng/mL.

B2 showed an EC50 of 9.7 ng/mL.

With B3, the 50% effective concentration (EC50) came to 13 ng/mL. This EC50 and that of the molecule before are within 1.5-fold of each other.

B4 yielded an EC50 of 8.5 ng/mL.

Molecule B5 had an EC50 of 7.4 ng/mL.

For the molecule B6, the half-maximal effective concentration (EC50) came to 10.4 ng/mL.

B7 displayed an EC50 of 14.8 ng/mL.

With B8, the EC50 came out at 8.3 ng/mL.

Molecule B9 yielded an EC50 of 8.3 ng/mL.

B10 came in with an EC50 of 9.9 ng/mL. The EC50 values of the last two molecules are within 1.5-fold of each other.

The next experiment has as its target T2, Glypican 3 Protein, Human, Recombinant (His Tag) (Sino Biological, Cat #10088-H08H) (human, UniProt P51654 25-559).
T2 construct: Bought recombinant protein; also called Hu-GPC3 (10088-H08H); human GPC3; not shown: His tag
Kind of experiment: Octet QKe BLI, ratio of KDs against P17 WT.
For the molecule B11, the “fold lower KD than P17 WT” value worked out at 6000 fold.

In the case of B12, the “fold lower KD than P17 WT” value amounted to 6000 fold.

A further experiment addresses T2, Glypican 3 Protein, Human, Recombinant …. Put plainly: Octet QKe BLI, IgG on AHC probe, GPC3 (Sino Biological) in solution, 1:1 fit. Background: In BLI a coated tip is dipped into the sample, and binding shifts an interference pattern.
For orientation: Kd means a measure of binding affinity in units of concentration. As a reminder, the koff is a measure of how fast the partners let go of each other. The term kon denotes the rate constant with which the complex forms. Regarding B13, the dissociation constant Kd was 5.99 nM, the off-rate (koff) is 0.000833 s⁻¹ and the kon came out at 139000 M⁻¹ s⁻¹.

Regarding B14, the Kd stood at 0.00103 nM, the koff is 1.87e-07 s⁻¹ and the kon was found to be 182000 M⁻¹ s⁻¹.

B11: the Kd was under 0.001 nM, the koff amounted to 1.83e-07 s⁻¹ and the kon came out at 188000 M⁻¹ s⁻¹.

As to B15, the Kd stood at 0.00117 nM, the koff was 2.51e-07 s⁻¹ and the kon turned out to be 215000 M⁻¹ s⁻¹.

As to B16, the Kd came out at 0.00133 nM, the dissociation rate constant (koff) is 2.76e-07 s⁻¹ and the kon stood at 208000 M⁻¹ s⁻¹.

As to B12, the Kd is under 0.001 nM, the koff worked out at 1.79e-07 s⁻¹ and the association rate constant (kon) turned out to be 223000 M⁻¹ s⁻¹.

The next experiment shares this target. Put plainly: sandwich-style epitope binning, Octet AHC biosensor, 300 nM human GPC3.
Turning to B17, the binding result is recorded as “binds”.

B18: the binding result is given as “binds”.

A further experiment deals with Cy-GPC3 (GP3-C5225) (Cy (so in the source)). Kind of experiment: Octet QKe BLI, antibody on AHC probe, antigen in solution, 1:1 fit.
B19: the Kd amounted to 1.28 nM.

The molecule B20 had a Kd of 5.45 nM.

The target in another experiment is T2, Glypican 3 Protein, Human, Recombinant …. The description is as above.
As for B19, the Kd was found to be 2.85 nM.

B21: the dissociation constant Kd was found to be 100 nM.

As for B20, the Kd came out at 20.1 nM.

The target in another experiment is T3, Fc-tagged human Glypican 3 protein (Acro Biosystems, cat #GP3-H5258) (human, UniProt P51654 25-559).
T3 construct: Bought; also called recombinant human GPC3; not shown: Fc tag
T3 sequence (P51654 25-559 limits assumed): as the sequence (P51654 25-559 limits assumed) above
Kind of experiment: ELISA, Fab titrated on coated Fc-tagged human GPC3, anti-Lambda HRP detection. (ELISA stands for enzyme-linked immunosorbent assay.)
As to B1, the EC50 amounted to 191 ng/mL.

With B2, a half-maximal effect (EC50) was put at 9 ng/mL. Against the preceding molecule, the EC50 is about 21-fold lower.

As for B3, a half-maximal effect (EC50) was put at 8.4 ng/mL.

As to B4, it took 9.6 ng/mL to reach a half-maximal effect (EC50).

In the case of B5, a half-maximal response (EC50) required 9.3 ng/mL.

Regarding B6, the midpoint of the response, the EC50, lay at 8.9 ng/mL.

As to B7, the midpoint of the response, the EC50, lay at 11.7 ng/mL.

As for B8, the EC50 amounted to 8.7 ng/mL.

Molecule B9 showed an EC50 of 9.6 ng/mL. This EC50 and that of the molecule before are within 1.5-fold of each other.

In turn, B10 registered an EC50 of 9.5 ng/mL.

The values are drawn from US20260132214A1 (JECHO LABORATORIES, published 2026).
